Among the data in patent US20180371051A1 (published 2018) are Kd values, retold here.

In assay [1] the target is T1, soluble, wild-type MICA (human, UniProt Q29983 24-299).
T1 chain: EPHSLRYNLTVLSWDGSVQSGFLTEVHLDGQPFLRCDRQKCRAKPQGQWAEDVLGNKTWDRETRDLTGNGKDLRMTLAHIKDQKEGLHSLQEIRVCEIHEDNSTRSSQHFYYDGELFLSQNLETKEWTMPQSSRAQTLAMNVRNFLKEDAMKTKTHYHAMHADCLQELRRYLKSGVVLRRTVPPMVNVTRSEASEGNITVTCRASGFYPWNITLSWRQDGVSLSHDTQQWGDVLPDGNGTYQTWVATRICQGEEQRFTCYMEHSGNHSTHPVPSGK
Nature of the assay: SPR; 1:1 binding model.

Assay [2] deals with T1, soluble, wild-type MICA. Nature of the assay: SPR; Two State Reaction model.
Assay [3] has as its target T1, soluble, wild-type MICA. Nature of the assay: SPR. For orientation: SPR reads the build-up and loss of mass on a sensor chip optically.

B1: NKG2D^scd7 (heptamerized single-chain NKG2D dimer, Example 2) (receptor)
chain: GSRSAGAHAGWETPEGCEQVLTGKRLMQCLPNPEDVKMALEVYKLSLEIEQLELQRDSARQSTLDKELNQEVQIPLTESYCGPCPKNWICYKNNCYQFFDESKNWYESQASCMSQNASLLKVYSKEDQDLLKLVKSYHWMGLVHIPTNGSWQWEDGSILSPNLLTIIEMQKGDCALYASSFKGYIENCSTPNTYICMQRTVQIPLTESYCGPCPKNWICYKNNCYQFFDESKNWYESQASCMSQNASLLKVYSKEDQDLLKLVKSYHWMGLVHIPTNGSWQWEDGSILSPNLLTIIEMQKGDCALYASSFKGYIENCSTPNTYICMQRTV
modifications: FITC-conjugated for flow cytometry (two fluorophores per protomer)
On to B1, for which the dissociation constant (Kd) – broadly, the equilibrium constant for the complex coming apart – is 4.6 nM with soluble, wild-type MICA [1]; 9.72 nM with soluble, wild-type MICA [2]; 4.6 nM with soluble, wild-type MICA [3].

B2: NKG2D^scd (single-chain dimer form of NKG2D) (receptor)
chain: NQEVQIPLTESYCGPCPKNWICYKNNCYQFFDESKNWYESQASCMSQNASLLKVYSKEDQDLLKLVKSYHWMGLVHIPTNGSWQWEDGSILSPNLLTIIEMQKGDCALYASSFKGYIENCSTPNTYICMQRTVQIPLTESYCGPCPKNWICYKNNCYQFFDESKNWYESQASCMSQNASLLKVYSKEDQDLLKLVKSYHWMGLVHIPTNGSWQWEDGSILSPNLLTIIEMQKGDCALYASSFKGYIENCSTPNTYICMQRTV
Molecule B2 showed a Kd with soluble, wild-type MICA [3] of 13.8 nM.
